The values below are quoted from earlier work in PMC6721559.

pKd: −log10 of the molar value.

Usually pKd stands for the Kd on a negative log10 scale, so that one unit is a factor of ten.

The target of this series is Ubc9 (Homo sapiens) (UniProt P63279).
Chain of UniProt P63279 (P63279 2-158): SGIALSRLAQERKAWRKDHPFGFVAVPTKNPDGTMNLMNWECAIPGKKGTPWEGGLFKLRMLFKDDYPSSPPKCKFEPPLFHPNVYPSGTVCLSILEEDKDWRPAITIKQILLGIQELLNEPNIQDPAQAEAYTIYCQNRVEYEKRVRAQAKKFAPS

Turning to SUMO (from UniProt P63165), the negative logarithm of the Kd (pKd) is 7.09.
